Here are results for 32 molecules from US20090280138A1 (OXFORD BIOMEDICA UK, published 2009).

One may read the EC50 as the concentration giving half of the maximal effect.

The first assay addresses T1, MHC class I molecule A*0101 (biotin (bound to streptavidin-coated plate)).
T1 construct: iTopia monomer stripped of placeholder peptide and b2M, then reconstituted with test peptide and fresh b2M; also called A1; HLA-A1
As to the kind of experiment: iTopia peptide binding assay. Summed up:
(§1)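 Plates coated with MHC class I molecules used to test 9-mer peptides for binding under standardized optimal conditions via the iTopia Epitope Discovery System. Read by ELISA in duplicate with allele-specific positive controls; binders taken on to affinity and off-rate testing.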
With PRLTNLSSN [5T4 9-mer peptide 205 (PRLTNLSSN)], the “binding, % of positive control peptide” value was 2 % of positive control.
The same measure, in the same setting: the same measure for INADPRLTN [5T4 9-mer peptide 203 (INADPRLTN)]: 0 % of positive control; for IFLLVLYLN [5T4 9-mer peptide 185 (IFLLVLYLN)]: 0 % of positive control.
As to EGYHYRYEI [5T4 9-mer peptide 199 (EGYHYRYEI)], the “binding, % of positive control peptide” value is 0 % of positive control.
For ACRDHMEGY [5T4 9-mer peptide 196 (ACRDHMEGY)], the “binding, % of positive control peptide” value is 3 % of positive control.
On the same count and under the same terms, to GAIFLLVLY [5T4 9-mer peptide 184 (GAIFLLVLY)] belongs 0 % of positive control; to YHYRYEINA [5T4 9-mer peptide 200 (YHYRYEINA)], 0 % of positive control; to YRYEINADP [5T4 9-mer peptide 201 (YRYEINADP)], 0 % of positive control.
On the same count and under the same terms, to LGIVLALIG [5T4 9-mer peptide 180 (LGIVLALIG)] belongs 0 % of positive control; to NIRDACRDH [5T4 9-mer peptide 194 (NIRDACRDH)], 0 % of positive control.
Same read-out and setting: the same measure for KGIKKWMHN [5T4 9-mer peptide 190 (KGIKKWMHN)]: 3 % of positive control.
For RDHMEGYHY [5T4 9-mer peptide 197 (RDHMEGYHY)], the “binding, % of positive control peptide” value was 11 % of positive control.

The target of a further assay is T2, MHC class I molecule B*0702 (biotin (bound to streptavidin-coated plate)).
T2 construct: iTopia monomer stripped of placeholder peptide and b2M, then reconstituted with test peptide and fresh b2M; also called B7; HLA-B7
As to the kind of experiment: iTopia peptide binding assay. Summed up:
as §1
For the molecule PRLTNLSSN [5T4 9-mer peptide 205 (PRLTNLSSN)], the “binding, % of positive control peptide” value was 11 % of positive control.
The same measure, in the same setting: to INADPRLTN [5T4 9-mer peptide 203 (INADPRLTN)] belongs 4 % of positive control.
Regarding IFLLVLYLN [5T4 9-mer peptide 185 (IFLLVLYLN)], the “binding, % of positive control peptide” value is 2 % of positive control.
Same read-out and setting: the same measure for EGYHYRYEI [5T4 9-mer peptide 199 (EGYHYRYEI)]: 4 % of positive control; for ACRDHMEGY [5T4 9-mer peptide 196 (ACRDHMEGY)]: 7 % of positive control.
Still for that read-out and setting: the same measure for GAIFLLVLY [5T4 9-mer peptide 184 (GAIFLLVLY)]: 0 % of positive control; for YHYRYEINA [5T4 9-mer peptide 200 (YHYRYEINA)]: 5 % of positive control; for YRYEINADP [5T4 9-mer peptide 201 (YRYEINADP)]: 3 % of positive control.
With LGIVLALIG [5T4 9-mer peptide 180 (LGIVLALIG)], the “binding, % of positive control peptide” value was 0 % of positive control.
Still for that read-out and setting: to NIRDACRDH [5T4 9-mer peptide 194 (NIRDACRDH)] belongs 6 % of positive control; to KGIKKWMHN [5T4 9-mer peptide 190 (KGIKKWMHN)], 6 % of positive control; to RDHMEGYHY [5T4 9-mer peptide 197 (RDHMEGYHY)], 5 % of positive control.

The target of a further assay is T3, MHC class I molecule A*0201 (biotin (bound to streptavidin-coated plate)).
T3 construct: iTopia monomer stripped of placeholder peptide and b2M, then reconstituted with test peptide and fresh b2M; also called A2; HLA-A2
As to the kind of experiment: iTopia peptide binding assay. The gist of the method: as §1
For PRLTNLSSN [5T4 9-mer peptide 205 (PRLTNLSSN)], the “binding, % of positive control peptide” value is 8 % of positive control.
On the same count and under the same terms, to INADPRLTN [5T4 9-mer peptide 203 (INADPRLTN)] belongs 3 % of positive control; to IFLLVLYLN [5T4 9-mer peptide 185 (IFLLVLYLN)], 8 % of positive control.
Still for that read-out and setting: to EGYHYRYEI [5T4 9-mer peptide 199 (EGYHYRYEI)] belongs 9 % of positive control.
The same measure, in the same setting: the same measure for ACRDHMEGY [5T4 9-mer peptide 196 (ACRDHMEGY)]: 8 % of positive control.
As for GAIFLLVLY [5T4 9-mer peptide 184 (GAIFLLVLY)], the “binding, % of positive control peptide” value was 5 % of positive control.
Still for that read-out and setting: the same measure for YHYRYEINA [5T4 9-mer peptide 200 (YHYRYEINA)]: 7 % of positive control; for YRYEINADP [5T4 9-mer peptide 201 (YRYEINADP)]: 0 % of positive control; for LGIVLALIG [5T4 9-mer peptide 180 (LGIVLALIG)]: 10 % of positive control.
On to NIRDACRDH [5T4 9-mer peptide 194 (NIRDACRDH)], for which the “binding, % of positive control peptide” value was 1 % of positive control.
KGIKKWMHN [5T4 9-mer peptide 190 (KGIKKWMHN)]: the “binding, % of positive control peptide” value was 14 % of positive control.
Turning to RDHMEGYHY [5T4 9-mer peptide 197 (RDHMEGYHY)], the “binding, % of positive control peptide” value was 6 % of positive control.

In another assay the target is T4, MHC class I molecule A*0301 (biotin (bound to streptavidin-coated plate)).
T4 construct: iTopia monomer stripped of placeholder peptide and b2M, then reconstituted with test peptide and fresh b2M; also called A3; HLA-A3
Kind of assay: iTopia peptide binding assay. The gist of the method:
as §1
In the case of PRLTNLSSN [5T4 9-mer peptide 205 (PRLTNLSSN)], the “binding, % of positive control peptide” value was 2 % of positive control.
Consider INADPRLTN [5T4 9-mer peptide 203 (INADPRLTN)], for which the “binding, % of positive control peptide” value is 1 % of positive control.
As for IFLLVLYLN [5T4 9-mer peptide 185 (IFLLVLYLN)], the “binding, % of positive control peptide” value was 0 % of positive control.
On to EGYHYRYEI [5T4 9-mer peptide 199 (EGYHYRYEI)], for which the “binding, % of positive control peptide” value was 0 % of positive control.
On the same count and under the same terms, the same measure for ACRDHMEGY [5T4 9-mer peptide 196 (ACRDHMEGY)]: 4 % of positive control; for GAIFLLVLY [5T4 9-mer peptide 184 (GAIFLLVLY)]: 5 % of positive control; for YHYRYEINA [5T4 9-mer peptide 200 (YHYRYEINA)]: 1 % of positive control.
As to YRYEINADP [5T4 9-mer peptide 201 (YRYEINADP)], the “binding, % of positive control peptide” value was 1 % of positive control.
Still for that read-out and setting: the same measure for LGIVLALIG [5T4 9-mer peptide 180 (LGIVLALIG)]: 1 % of positive control.
The same measure, in the same setting: to NIRDACRDH [5T4 9-mer peptide 194 (NIRDACRDH)] belongs 0 % of positive control.
For the molecule KGIKKWMHN [5T4 9-mer peptide 190 (KGIKKWMHN)], the “binding, % of positive control peptide” value was 3 % of positive control.
On the same count and under the same terms, the same measure for RDHMEGYHY [5T4 9-mer peptide 197 (RDHMEGYHY)]: 3 % of positive control.

A further assay has as its target T5, MHC class I allele B*0702 monomer (human, biotinylated, bound to streptavidin-coated plate).
T5 construct: also called B7; HLA-B7
As to the kind of experiment: iTopia, multiparametric iScore. The gist of the method: (§2)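 9-mer peptides were tested on plates coated with MHC molecules, measuring binding, off-rate and affinity by ELISA in duplicate with allele-specific positive controls.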
LIGAIFLLV [5T4 9-mer peptide 183] had an iScore of 0.
The same measure, in the same setting: the same measure for ILPPSLQTS [5T4 9-mer peptide 174]: 0.
On the same count and under the same terms, the same measure for HMADMVTWL [5T4 9-mer peptide 151]: 0.
On the same count and under the same terms, the same measure for SLQTSYVFL [5T4 9-mer peptide 176]: 0.
As for VFLGIVLAL (also called VFLGIVLAL) [5T4 9-mer peptide 179], the iScore is 0.

Another assay concerns the target T6, MHC class I allele A*0301 monomer (human, biotinylated, bound to streptavidin-coated plate).
T6 construct: also called A3; HLA-A3
Kind of assay: iTopia, multiparametric iScore. The gist of the method: as §2
Turning to LIGAIFLLV [5T4 9-mer peptide 183], the iScore worked out at 0.07.
Still for that read-out and setting: the same measure for ILPPSLQTS [5T4 9-mer peptide 174]: 0.
On the same count and under the same terms, the same measure for HMADMVTWL [5T4 9-mer peptide 151]: 0; for SLQTSYVFL [5T4 9-mer peptide 176]: 0; for VFLGIVLAL (also called VFLGIVLAL) [5T4 9-mer peptide 179]: 0.

The target of a further assay is T7, MHC class I allele A*0201 monomer (human, biotinylated, bound to streptavidin-coated plate).
T7 construct: also called A2; HLA-A2
Kind of assay: iTopia, multiparametric iScore. The gist of the method:
as §2
ILPPSLQTS [5T4 9-mer peptide 174]: the iScore worked out at 0.523.
The same measure, in the same setting: the same measure for HMADMVTWL [5T4 9-mer peptide 151]: 0.821.
The same measure, in the same setting: to SLQTSYVFL [5T4 9-mer peptide 176] belongs 0.561.
On to VFLGIVLAL (also called VFLGIVLAL) [5T4 9-mer peptide 179], for which the iScore stood at 0.606.

A further assay addresses T8, MHC class I allele A*0101 monomer (human, biotinylated, bound to streptavidin-coated plate).
T8 construct: placeholder peptide and b2M removed, then reconstituted with test peptide and fresh b2M; also called A1; HLA-A1
Kind of assay: iTopia, multiparametric iScore. Summed up:
as §2
LIGAIFLLV [5T4 9-mer peptide 183] returned an iScore of 0.
ILPPSLQTS [5T4 9-mer peptide 174] yielded an iScore of 0.
Same read-out and setting: to HMADMVTWL [5T4 9-mer peptide 151] belongs 0; to SLQTSYVFL [5T4 9-mer peptide 176], 0; to VFLGIVLAL (also called VFLGIVLAL) [5T4 9-mer peptide 179], 0.

The next assay addresses T7, MHC class I allele A*0201 monomer. As to the kind of experiment: iTopia, multiparametric iScore. This is another data set of the same source. Here is the method: (§3) The 9 mers were tested for Peptide Binding, Off Rate and Affinity using iTopia Epitope Discovery System in accordance with the manufacturer's instructions. Briefly, 96 well microtitre plates coated with MHC molecules representing different MHC alleles are used to identify candidate peptides. […] Determinations are performed in duplicate using an ELISA plate reader and included allele specific positive controls.
Finally, multiparametric analysis is performed on the results from these assays and an iScore is generated. The iScore represents a measure of the overall quality of peptide-MHC binding, enabling candidate peptides to be ranked in order of binding quality and allowing rational prioritisation of peptides for functional cellular follow-up studies.
In turn, LIGAIFLLV [5T4 9-mer peptide 183] showed an iScore of 1.9.
The same measure, in the same setting: the same measure for SSAPFLASA [5T4 9-mer peptide 22]: 0.389.
ILPPSLQTS [5T4 9-mer peptide 174] showed an iScore of 0.523.
Same read-out and setting: the same measure for PLADLSPFA [5T4 9-mer peptide 77]: 0.556; for FLTGNQLAV [5T4 9-mer peptide 49]: 0.791; for LAELAALNL [5T4 9-mer peptide 59]: 0.72.
The same measure, in the same setting: to HMADMVTWL [5T4 9-mer peptide 151] belongs 0.821; to ILNHIVPPE [5T4 9-mer peptide 90], 0.426; to RLDEVRAGA [5T4 9-mer peptide 65], 0.422.
With SLQTSYVFL [5T4 9-mer peptide 176], the iScore came out at 0.561.
As for VFLGIVLAL (also called VFLGIVLAL) [5T4 9-mer peptide 179], the iScore worked out at 0.606.
For GMVVAALLA [5T4 9-mer peptide 99], the iScore was 0.384.

The next assay has as its target T9, MHC class I molecule A*0201 (biotin (bound via biotin to streptavidin-coated plates)).
T9 construct: also called A2; HLA-A2
Kind of assay: iTopia affinity assay (ED50), peptide titration on plate-bound MHC. Here is the method:
as §3
Dose-response curves of peptide binding to MHC were prepared by peptide titration to determine the ED50 measurement for each peptide. Values for the concentrations tested (in duplicate) were obtained as a percentage of the highest (9000×) concentration of the positive control peptide. A dose-response curve was generated using GraphPad Prism® curve fitting software, which automatically calculated the ED50 (in Molarity) for each peptide.
For the molecule GMVVAALLA [5T4 9 mer peptide 99 (GMVVAALLA)], it took 0.6 µM to reach a half-maximal effect (EC50).
Consider LDLSNNSLV [5T4 9 mer peptide 120 (LDLSNNSLV)], for which it took 20 µM to reach a half-maximal effect (EC50).
The molecule PLADLSPFA [5T4 9 mer peptide 77 (PLADLSPFA)] came in with an EC50 of 2 µM.
Still for that read-out and setting: the same measure for SSAPFLASA [5T4 9 mer peptide 22 (SSAPFLASA)]: 0.3 µM; for AFSGSNASV [5T4 9 mer peptide 81 (AFSGSNASV)]: 7 µM.
ILNHIVPPE [5T4 9 mer peptide 90 (ILNHIVPPE)] gave an EC50 of 6 µM.
Molecule FLTGNQLAV [5T4 9 mer peptide 49 (FLTGNQLAV)] had an EC50 of 1 µM.
PALCECSEA [5T4 9 mer peptide 32 (PALCECSEA)]: the EC50 turned out to be 4 µM.
